No end group written: not given here.
Assays:
[1] = tested on: tumors derived from the KRas wild-type cells HT29; experiment: In vivo Cy5 imaging of tumor targeting, HT29 tumors; design: species or system mice; conditions: tail vein 60 μM, 100 μL, 2.5 hours, compared with Cy5 single molecule
Text: (§1) • (1) 10 female Balb/c nude mice aged 4 weeks to 5 weeks (Guangdong Laboratory Animal Center) were purchased, and then 500,000 HT29cells and 500,000 HCT116 cells were subcutaneously injected into left and right sides of the mice respectively. One week later, the mice were divided into two groups, with five mice in each group, which were the experimental group and the control group respectively. Raising and experiment of the mice were both carried out in the Laboratory Animal Center of Sun Yat-sen University, and all the operations were in accordance with the management method of laboratory animals of Sun Yat-sen University and complied with the animal ethical rules. • (2) The TKD-Cy5 molecule and the Cy5 single molecule constructed above were injected into the mice by tail vein at a concentration of 60 μM and a volume of 100 μL, wherein the TKD-Cy5 injection group was the experimental group and the Cy5 single molecule injection group was the control group. • (3) After 2.5 hours of tail vein injection, the mice were anesthetized with isoflurane. Cy5 imaging detection was conducted by using IVIS Lumina (PerkinElmer), with a fluorescence detection form of fluorescence. • (4) Experimental results were shown in FIG. 15.

[2] = In vivo Cy5 imaging, other tissues and organs; design: species or system mice; conditions: tail vein 60 μM, 100 μL; 2.5 hours
Text: as §1

[3] = tested on: tumors derived from the KRas mutant-type HCT116 cells; experiment: In vivo Cy5 imaging of tumor targeting, HCT116 tumors; design: species or system mice; conditions: tail vein 60 μM, 100 μL, 2.5 hours, compared with Cy5 single molecule
Text: as §1

[4] = tested on: normal human intestinal epithelial cells FHC; experiment: Effect of gefitinib on normal cells (FHC control in CCK-8 / clone formation); assay type: cell-based; conditions: gefitinib 4 μM
Text: • (1) The colorectal cancer cells HT29 (KRas wt) and HCT116 (KRas G13D) in the logarithmic growth phase and the normal human intestinal epithelial cells FHC were digested with pancreatin and then prepared into a single cell suspension, and the cells were evenly inoculated in a 12-well plate by 500 cells per well. […] Cell culture solution was replaced every other 1-2 days, and the culture was stopped until cell clones (more than 50 cells were considered as one clone) were seen under a light microscope. • (3) After the supernatant of each group was discarded, the cells were washed twice with the PBS buffer solution, and dried in air. A proper amount of methanol stationary liquid was added into each well for cell fixation for 15 minutes, and residual stationary liquid in the well was washed off with PBS solution, and dried in air. A proper amount of crystal violet staining solution was added into each well for cell staining for 15 minutes, and residual staining solution in the well was washed off with PBS solution, and dried in air. The cell clones seen in the auxiliary wells of each group were counted under an inverted microscope and the number of the clones was calculated. • (4) Statistical analysis was carried out by using GraphPad Prism8 software, and one way anova was used to compare means of multiple groups. The difference was statistically significant when P<0.05.

Row | Compound | aggregation in tumors (Cy5 imaging) [1] | targeting of other tissues and organs (Cy5 imaging) [2] | aggregation in tumors (Cy5 imaging) [3] | toxic and side effects on normal cells [4]
1 | TKD-Cy5: TKD molecules labeled with fluorescent dye Cy5 to form TKD-Cy5 covalent conjugates (TKDNNLLGRFELSG; also: Cy5 dye conjugate, site not given here; UniProt P0DMV8 450-463, looked up, fragment) | could aggregate in tumors | except bladder retention caused by metabolism in vivo as in the control group, TKD-Cy5 could not target other tissues and organs of the mice | could aggregate in tumors | 
2 | COc1cc2ncnc(Nc3ccc(F)c(Cl)c3)c2cc1OCCCN1CCOCC1 [gefitinib] |  |  |  | could not cause toxic and side effects on normal cells
